The results in this text go back to paper PMC10573625, “Interaction of VvDELLA2 and VvCEB1 Mediates Expression of Expansion-Related Gene during GA-Induced Enlargement of Grape Fruit”.

Data set [1] deals with T1, VvCEB1 (UniProt I6QS36 1-270).
T1 sequence: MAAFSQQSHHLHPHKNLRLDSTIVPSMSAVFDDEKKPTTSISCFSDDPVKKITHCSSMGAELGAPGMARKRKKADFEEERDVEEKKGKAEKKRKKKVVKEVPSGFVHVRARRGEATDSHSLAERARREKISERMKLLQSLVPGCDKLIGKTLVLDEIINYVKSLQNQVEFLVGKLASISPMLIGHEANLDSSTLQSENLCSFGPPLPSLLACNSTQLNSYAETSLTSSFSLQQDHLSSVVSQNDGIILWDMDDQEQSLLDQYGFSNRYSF
Put plainly: EMSA; Binding buffer, salt, pH and temperature not stated; Beyotime chemiluminescent biotin-labelled nucleic acid detection kit; probes annealed at 72 C for 30 min. The following applies: protein: recombinant; tags: His (pET-30a(+)); chain copies: 2; label: 5'-biotin; blunt. Background: A gel shift assay detects complexes by their altered migration in electrophoresis.

For data set [2], the target named is T1, VvCEB1. Description: competition; unlabelled competitor against biotin probe N4; band significantly weakened; Binding buffer, salt, pH and temperature not stated; Beyotime chemiluminescent biotin-labelled nucleic acid detection kit; probes annealed at 72 C for 30 min. The following applies: protein: recombinant; tags: His (pET-30a(+)); chain copies: 2; blunt.

Data set [3] concerns the target T1, VvCEB1. Put plainly: EMSA; band disappeared completely with mutated probe; Binding buffer, salt, pH and temperature not stated; Beyotime chemiluminescent biotin-labelled nucleic acid detection kit; probes annealed at 72 C for 30 min. To be noted: protein: recombinant; tags: His (pET-30a(+)); chain copies: 2; blunt.
In data set [4] the target is T1, VvCEB1. Description: competition; unlabelled competitor against biotin probe N1; band significantly weakened; Binding buffer, salt, pH and temperature not stated; Beyotime chemiluminescent biotin-labelled nucleic acid detection kit; probes annealed at 72 C for 30 min. To be noted: protein: recombinant; tags: His (pET-30a(+)); chain copies: 2; 5' overhang 1 nt as printed.

B1: PVvEXPA11-biotin (dsDNA)
DNA 1: CTACTTGCAGAGATCACATGTGAGGCTGTTGCATT
DNA 2: AATGCAACAGCCTCACATGTGATCTCTGCAAGTAG
In the case of B1, in the data set with VvCEB1 [1], the binding result is recorded as “binds”.

B2: PVvEXPA11 (unlabelled competitor) (dsDNA)
DNA 1: CTACTTGCAGAGATCACATGTGAGGCTGTTGCATT
DNA 2: AATGCAACAGCCTCACATGTGATCTCTGCAAGTAG
Take B2: the binding result with VvCEB1 [2] is reported as “binds”.

B3: PVvEXPA11-mut (dsDNA)
DNA 1: CTACTTGCAGAGATCACATTTTAGGCTGTTGCATT
DNA 2: AATGCAACAGCCTAAAATGTGATCTCTGCAAGTAG
For the molecule B3, the binding result in the data set with VvCEB1 [3] is given as “no binding”.

B4: PVvEXPA8-biotin (dsDNA)
DNA 1: TGGTAGTCTAACTTGAACAAAACATATGCATGTGCAG
DNA 2: CTGCACATGCATATGTTTTGTTCAAGTTAGACTACCA
Turning to B4, the binding result with VvCEB1 [1] is “binds”.

B5: PVvEXPA8 (unlabelled competitor) (dsDNA)
DNA 1: TTGGTAGTCTAACTTGAACAAAACATATGCATGTGCAG
DNA 2: CTGCACATGCATATGTTTTGTTCAAGTTAGACTACCA
In the case of B5, the binding result with VvCEB1 [4] is reported as “binds”.

B6: PVvEXPA8-mut (dsDNA)
DNA 1: TGGTAGTCTAACTTGAACAAAACATATGCATTTTCAG
DNA 2: CTGAAAATGCATATGTTTTGTTCAAGTTAGACTACCA
Regarding B6, the binding result with VvCEB1 [3] is on record as “no binding”.
